Values belong to the binder of their own block, whether it stands above or below them. Where no end group is shown, it is not given here. The star is where a group is joined. Biotin = O=C1N[C@H]2[C@H](CS[C@H]2CCCCC(=O)*)N1; Ahx = NCCCCCC(=O)O
Experiments:
[1] = molecular target: T1, CD99 peptide number 6 (Biotin-Ahx-AVVDGENDDPRPPNP) (human); test: BLI
T1 peptide: {Biotin-Ahx}-AVVDGENDDPRPPNP

[2] = molecular target: T2, CD99 peptide number 6 (Biotin-Ahx-AVVDGENDDPRPPNP) (Homo sapiens); test: BLI; Biotin-Ahx-AVVDGENDDPRPPNP (10 ug/mL) loaded on streptavidin biosensors; antibody 0.625 to 10 ug/mL in PBS with 0.05% Tween 20; Octet K2; conditions: both partners purified
T2 construct: stretch of human CD99
T2 chain: {Biotin-Ahx}-AVVDGENDDPRPPNP

CD99ExhIgG = molecular target: T3, CD99ExhIgG (Homo sapiens, UniProt P14209); test: ELISA; indirect ELISA; CD99ExhIgG (or CD147Rg as negative control) coated on the plate at 4 °C overnight; purified HuScFvMT99/3 (HIS6X) at 1, 5 and 10 ug/mL, room temperature 1 h; detected with HRP anti-His tag antibody; conditions: both partners purified
T3 construct: extracellular part of human CD99; also called CD99ExIgG; recombinant CD99ExhIgG; source: HEK293T stably expressing, culture supernatant, purified (HiTrap Protein G)
T3 sequence (P14209 23-122): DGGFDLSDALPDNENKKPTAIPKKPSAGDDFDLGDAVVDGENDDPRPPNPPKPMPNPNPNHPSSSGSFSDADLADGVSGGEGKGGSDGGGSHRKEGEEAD

koff [1]: 8.06e-05 s⁻¹
Kd [2]: 316 pM
B1: mouse anti-CD99 monoclonal antibody MT99/3 (antibody, V domains shown)
VH: VQLQQSGAELVKPGASVRLSCTLSGFNIKDTYIHWVNQRPEQGLEWIGRIDPGNGNIKYDPKFQGKATITADTSSNKVYLHLSSLTSEDTAVYYCARSGGYDFDYWGQGTTLTVSS
VL: DVVMTQTPLSLPVSLGYQVSISCRSSQSLVHSNGNTYLHWYLQKPGQSPKLLIYTVSNRFSGVPDRFSGSGSGTDFTLKISRVEAEDLGVYFCSQSTYVPYTFGGGTKLEKK
notes: mouse IgG heavy constant region; Parent antibody of m1 and m2; also called mAb MT99/3; mouse MT99/3

binding result (CD99ExhIgG): binds
B2: HuScFvMT99/3 (HIS6X) (scFv, V domains shown)
VH: QVQLQESGPGLVKPSETLSLTCTLSGFNIKDTYIHWVRQPPGKGLEWIGRIDPGNGNIKYDPKFQGRATISADTSKNQVSLNLDSVSAADTAIYYCARSGGYDFDYWGKGSTVTVSS
VL: VQMTQSPSSLSASVGDRVTITCRSSQSLVHSNGNTYLHWYQQKPGKAPKLLIYTVSNRFSGVPSRFSGSGSGTDFTFTISSLQPEDIATYFCSQSTYVPYTFGPGTKVDIK
notes: V-KAPPA domain of HuScFvMT99/3; linker of the ScFvkh format (V-KAPPA-linker-VH); VH domain of HuScFvMT99/3; order V-KAPPA-linker-VH; cloned NdeI/XhoI into pET-21a; also called humanized single-chain Fv MT99/3; humanized ScFv variant of mAb MT99/3; source: E. coli Origami B (DE3), purified (Ni-NTA agarose); not shown: His6, C-terminal, kept

Source: publication PMC11592157, “Exploring the Biological Activity of a Humanized Anti-CD99 ScFv and Antibody for Targeting T Cell Malignancies” (Biomolecules, 2024)
